Measurements: article doi:10.1101/2024.05.28.596271

What was measured:
[1] = molecular target: FITC-labeled integrin β2 peptide representing both the JM and the NPxY/F regions (human); experiment: fluorescence polarisation
[2] = molecular target: FAM-labeled integrin β3 peptide (human); experiment: fluorescence polarisation

Substance	Kd [1]	Kd [2]	fold increase in affinity over wild-type THD [2]
talin head protein THD405d (residues 1-405, lacking F1-loop) (from UniProt P26039 1-405) (domain or fragment)	31.9 µM	4.4 µM	
THD(D397K) (from UniProt P26039 1-405) (domain or fragment)			2 fold
THD(D397R) (from UniProt P26039 1-405) (domain or fragment)	> 100 µM		2 fold
